Results from the DeepSol protein solubility set.

Test: soluble on expression in E. coli; label from the status in PepcDB or PDB records

Row | Sequence | soluble on expression in E. coli
1 | MSLNEKEINYEEVMAKIDPENGIQVEIPRGANTDDIANILREHGVIKYPFWFKFVSKFNGYDGRYKSGKHIVNKDLKYKEIMEILCSNPVTTTVTIIEGKNTDQIADILSEKKVIDKEAFLEACNTEKFDYEFLKDIPENPQRENKLEGYLFPDTYFFDPKAGERAIIEKFLDNFDAKFKPEFYERAKELNMTVDEVIILASIIERETALPEERPIVSSVFHNRLKSSDPNLKKLESCATVQYVLYKTQGKMKEKLSDEDTKIDHPYNTYLYEGLPPGPICCPGLASIEAALYPDEESEYLYFVAKGDGSHEFSRTLAEHLEAVKKYQSNEGHHHHHH | soluble
2 | MSLNEPVMNKKHFADNNFEEFQRIIRAKLENFKDRIELIEELLSKYHPTRLKEYTKDGIIYSKQCEFYNFLVGMNEAPFICNRKDLYLKEKMHGGVKEVYFANKHGKILNDDLSEKYFSAIEISEYAPKSQSDLFDKINALDSEFIFMHAYSPKNSQVLKDKLAFTSRRIIISGGSKEQGMTLGCLSELVGNGDITLGSYGNSLVLFADSFEKMKQSVKECVSSLNAKGFLANAATFSMENYFFAKHCSFITLPFIFDVTSNNFADFIAMRAMSFDGKEDNNAWGNSVMTLKSEINSPFYLNFHMPTDEGHHHHHH | not soluble
3 | MSLNGIGSYEYCGRRISMQDSILVGNNFFGDASSLFGIFDGHGGDYGSCFISKEIQKSLEKLRGRALTKEVFENEIISAIQNINTLMEQNNMTDGATSVIVASTKTHYLIANIGDSRAIIIRRTETSPIPMKDIDDETQQTLRPKSPSKLVLPKKTLKGKLGWSGAGSSKTTNQIEVNFDYIGGGRIEVEALTHDHKPSYQEDRQRIRESGNYISDQEKVNGYISVTRAIGDVKCKAFVSCIPEFSEVARRSSDCFVICACDGVWDVFSNEEIGNLVMANEQMNCTELAKLIVDIAYCRLSSDNISCIVFNCQDSEGHHHHHH | soluble
4 | MSLNGSSIIEFEDMTWSQQVEDSKKPVVVMFYSPACPYCKAMEPYFEEYAKEYGSSAVFGRINIATNPWTAEKYGVQGTPTFKFFCHGRPVWEQVGQIYPSILKNAVRDMLQHGEECIRKSTPVGQDITGYVEGHHHHHH | soluble
5 | MSLNIAKIVREAREQSRLTTLDFATGIFDEFIQLHGDRSFRDDGAVVGGIGWLGDQAVTVVGIQKGKSLQDNLKRNFGQPHPEGYRKALRLMKQAEKFGRPVVTFINTAGAYPGVGAEERGQGEAIARNLMEMSDLKVPIIAIIIGEGGSGGALALAVADRVWMLENSIYAILSPEGFASILWKDGTRAMEAAELMKITSHELLEMDVVDKVISEVGLSSKELIKSVKKELQTELARLSQKPLEELLEERYQRFRKYEGHHHHHH | soluble
6 | MSLNIETKKVAVEEISAAIANAQTLVVAEYRGISVSSMTELRANARKEGVYLRVLKNTLARRAVQGTSFAELADQMVGPLVYAASEDAVAAAKVLHQFAKKDDKIVVKAGSYNGEVMNAAQVAELASIPSREELLSKLLFVMQAPVSGFARGLAALAEKKAGEEAA | not soluble
7 | MSLNIKDEHIDSVCSLLDQLVGNVSFKNLFTGYGLFHKEETMFAIWQNKKLYLRGEGVLAIQLTKLGCEPFTTNELNKRFVLSQYYALSDQILRSNRLCRKLIILSIKQILEQKLECTLRKLNRLKDLPNLTIKHERALIKVGITNVAMLREIGAENALVELKKSGSGATLDFYWKLVCALQNKNSQMLSQAEKERLLKKLNEVWRKNGLKGYRKLDDEEGHHHHHH | soluble
8 | MSLNIKKAAELSGIKTDNIRYYERIGLIPKITRTESGIRNFTEANIRTLKFVKHMRDAGVQVEPLTRYMALVNEGNPETKEERIEILKNQVEQLRTEIIEKQSALDYLTFKIENYDEVMLPNEINLNQSSKETIKEGHHHHHH | soluble
9 | MSLNIVTLISWDFKRNNESFQRAIINGYDYWSRILDDHGVEKYVILLTCNRVELYYRGDPFDVQEKGYNIISDDMAINHLFHVAAGLDSMSIGENEVLKQVKQAYEKSSSMGKSDKFLSLIFQRAISVGKLVRSKTGIGKGKVSIPSIVYDIVRKNGGNKILLVGNGMLASEIAPYFSYPQYKVTVAGRNIDHVRAFAEKYEYEYVLINDIDSLIKNNDVIITATSSKTPIVEERSLMPGKLFIDLGNPPNIERGNNVITLDEIYEISKKNEMLREEKINQAEILIENEMKATMNKIKDLMIDDIFSQFYRFASVVQTMEIQKFRKMHPEVNENDLEALAHSIINKILNVPVTTLKAVSRSQGNSDFNRLFESFSSNFNDIVSAALQSYEGLRDTQSLRDRTRQLLQKSEGHHHHHH | soluble
10 | MSLNLNLIFKEQTLKFNKEEQETYLFLQQHNSDWANIFKEMILQGRDKVTQRLVTSMHRENLVKARTQSKKILSRDLIMLDISTTHILEIQFPQAKQTLYAPITGEHAFDRIDVEGPFYIKDDITNTITRVHHPNEILECILIEAPDLKNAASDQFQQDLINSATNMTFAISYQALSMQHDSAPLFNIIENSEDSYLRSEQAVIEGHPLHPGAKLRKGLNALQTFLYSSEFNQPIKLKIVLIHSKLSRTMSLSKDYDTTVHQLFPDLIKQLENEFTPKFNFNDYHIMIVHPWQLDDVLHSDYQAEVDKELIIEAKHTLDYYAGLSFRTLVPKYPAMSPHIKLSTNVHITGEIRTLSEQTTHNGPLMTRILNDILEKDVIFKSYASTIIDEVAGIHFYNEQDEADYQTERSEQLGTLFRKNIYQMIPQEVTPLIPSSLVATYPFNNESPIVTLIKRYQSAASLSDFESSAKSWVETYSKALLGLVIPLVTKYGIALEAHLQNAIATFRKDGLLDTMYIRDFEGLRIDKAQLNEMGYSTSHFHEKSRILTDSKTSVFNKAFYSTVQNHLGELILTISKASNDSNLERHMWYIVRDVLDNIFDQLVLSTHKSNQVNENRINEIKDTMFAPFIDYKCVTTMRLEDEAHHYTYIKVNNPLYRENNEGHHHHHH | soluble
11 | MSLNLVSEQLLAANGLKHQDLFAILGQLAERRLDYGDLYFQSSYHESWVLEDRIIKDGSYNIDQGVGVRAISGEKTGFAYADQISLLALEQSAQAARTIVRDSGDGKVQTLGAVEHSPLYTSVDPLQSMSREEKLDILRRVDKVAREADKRVQEVTASLSGVYELILVAATDGTLAADVRPLVRLSVSVLVEEDGKRERGASGGGGRFGYEFFLADLDGEVRADAWAKEAVRMALVNLSAVAAPAGTMPVVLGAGWPGVLLHEAVGHGLEGDFNRRGTSVFSGQVGELVASELCTVVDDGTMVDRRGSVAIDDEGTPGQYNVLIENGILKGYMQDKLNARLMGMTPTGNGRRESYAHLPMPRMTNTYMLPGKSTPQEIIESVEYGIYAPNFGGGQVDITSGKFVFSTSEAYLIENGKVTKPVKGATLIGSGIETMQQISMVGNDLKLDNGVGVCGKEGQSLPVGVGQPTLKVDNLTVGGTA | soluble
12 | MSLNMFWFLPTHGDGHYLGTEEGSRPVDHGYLQQIAQAADRLGYTGVLIPTGRSCEDAWLVAASMIPVTQRLKFLVALRPSVTSPTVAARQAATLDRLSNGRALFNLVTGSDPQELAGDGVFLDHSERYEASAEFTQVWRRLLQRETVDFNGKHIHVRGAKLLFPAIQQPYPPLYFGGSSDVAQELAAEQVDLYLTWGEPPELVKEKIEQVRAKAAAHGRKIRFGIRLHVIVRETNDEAWQAAERLISHLDDETIAKAQAAFARTDSVGQQRMAALHNGKRDNLEISPNLWAGVGLVRGGAGTALVGDGPTVAARINEYAALGIDSFVLSGYPHLEEAYRVGELLFPLLDVAIPEIPQPQPLNPQGEAVANDFIPRKVAQS | soluble
13 | MSLNNKVLVTGGTGFVGMRIISRLLEQGYEVQTTIRDLSKADKVIKTMQDNGISTERLMFVEADLSQDEHWDEAMKDCKYVLSVASPVFFGKTDDAEVMAKPAIEGIQRILRAAEHAGVKRVVMTANFGAVGFSNKDKNSITNESHWTNEDEPGLSVYEKSKLLAEKAAWDFVENENTIVEFATINPVAIFGPSLDAHVSGSFHLLENLLNGSMKRVPQIPLNVVDVRDVAELHILAMTNEQANGKRFIATADGQINLLEIAKLIKEKRPEIAQKVSTKKLPDFILSLGAKFNHQAKEGKLLLDMNRNVSNERAKTLLGWEPIATQEEAILAAIDSMAKFHLIEGHHHHHH | soluble
14 | MSLNNMRLFKKSLLAVTVTLATQQAFAAGFQLNAQSATGLGRAFAGDAVIADNAAVMSRNPAAMALFDEMALSLGFETITTMIDVKNVSYRGVLGNSVSVQDTDDVGGTSVAPNIHLIVPVNEQFAWGVNAYSNFGTKTEFSDSYPASEYGGLTDVKSFNLGLAGSYRVNKEWSFGAGLDLIYGQGTMKRIAGTSFPASTIVVNPTTVIPARGTSLLNVDKADGWAVGFNLGTVYEMDENNRFGLSYRYSPEFKAKDDYGQEITLPLPDIAEFSGFHKIENTQFAVHYSVQWIGWSAFDKIEFRNLVTSRSSVGALTKGSYDKMYEWQDGWHYSIGGTYYLNSDWTLRAGYMYDTSAQDSRTSISVPDSDRQWLSAGFTYNIDDKSNVDFGFTYLMGKDVAVSENDAGSKLTATTHADAILLGLQYSRTFEGGSHHHHHH | soluble
15 | MSLNNPYIKMIGAHGTALGDIYGHVTLENFDNTDIYGTEINLVGQINIGETDFNLYGQVFDKSMPVWGETNTLLGLSWDKNYDNTYVQLAFAAHIVNATYKAFDSNFDEQGFNGGYAYLNISHDLSLFDQDFKFVWWQEFYFGRNEQYLELAGDMEDFGFNGQLRANWIINNNWSVGVSYRYAENNLGKKGYHDAFFYSVQYKFEGHHHHHH | not soluble
16 | MSLNPRLFSPHIIRSLLDLDAYKINMMQAIHHFYPDVSVRYELIVRSEEDASGLLDAIRQEIAHLGTLRFSDADIHYLTQHAPHLKATFLQSLRYFHFVPQEQVEMGIVKQGGKQQLRISIRGSWRDTILYETLVMAIVSEVRSRQRWAEVPADLPLKVLKTKLDQLKAEIERRGINNFSLTEMGTRRRFSSQVQRDVLACLKQEIPQWVLGTSNYHFAREFDLKPIGTIAHEWFMGHQALVNERDSQQVALERWLTAFDGMLAIAPTDTLTIDAFLNDFNRHLANAYDGVRHDSGCPFRWGDKMIAHYQQLGIDPTTKLFIFSDGLDFDQALELCEYFAGRVKISFGIGTFLTNDLANWRNAAGVEYRPLSIVIKLAECQGRPVAKISDQPEKAMCEDPIFLANLKRRFNIELDVDALIQELRHQKRSPRHYISAAEGHHHHHH | soluble
17 | MSLNPYKIEVVDHTKLVESNTSINEKEEKSISSVEERANLYEDDEENDEEEDSNEFASEAIPFYSVLGEKDYFYFPSEQIQEHYSKRIPGYFMPNNYYCVNYDFTYNPVKKNVNGDEDDDDDEEEEEGDSGTDRKVKTQEKFRASFIFIDTWALMVGFPIIRNYRAFREQFNWLSKTLYESAKKSDWIFVVGHHPLISSGRRSDNYSYEEHSFHDIIRDFLFNYHVDAYFSAHDHLMEYIKFGSVDLFINGSSSRVLFDNSSMGRGYFGKIIGKLYPLSCYVLKTIHTGLKPKGCNINRYSKWYNKSDIGFSTHKLTKDELVTQFISSRTGKPLSEKIITKNKKHEREGHHHHHH | soluble
18 | MSLNQSFTQFGDGYASTGTLNIGDVLDIMIWEAPPAVLFGGGLSSMGSGSAQQTKLPEQLVTARGTVSVPFVGDISVVGKTPGQVQEIIKGRLKKMANQPQVMVRLVQNNAANVSVIRAGNSVRMPLTAAGERVLDAVAAVGGSTANVQDTNVQLTRGNVVRTVALEDLVANPRQNILLRRGDVVTMITNPYTFTSMGAVGRTQEIGFSARGLSLSEAIGRMGGLQDRRSDARGVFVFRYTPLVELPAERQDKWIRQGYGSEAEIPTVYRVNMADAHSLFSMQRFPVKNKDVLYVSNAPLAEVQKFLSFVFSPVTSGANSINNLTNEGHHHHHH | not soluble
19 | MSLNTRRLLDLSVTLDNNPYTDPPPLLPKIDYMDHQQGWPEMAAMFPGLRKEDLPGDESWAAERLQITTHSGTHMDAPWHYASTTDGGKPAFGIDELPLEWCLQPGVKLDFRHLPDGHVVTAAQVEAELARIGHELQPLDIVLVNTRAGSLFGQPGYLEAGVGMGREATLYLLERGVRVVGTDAWSWDAPFKFTRERFSETGDASIIWEGHKAGRDIGYGQMEKLANLEQLPADGFLVSCFPYKIRHASAGFVRAVAIFDLEHHHHHH | soluble
